According to US20260022166A1 (JIANGSU HENGRUI MEDICINE, published 2026):

Legend:
[1] = molecular target: T1, His-tagged human TSLP antigen (huTSLP-his) (human); assay: ELISA, coated huTSLP-his
T1 construct: also called Human TSLP-his
Description: After discarding the liquid, 200 μl/well of blocking solution with 5% skimmed milk (Bright Dairy skimmed milk powder) diluted in PBS was added and incubated in a 37° C. incubator for 2 hours for blocking. After blocking was over, the blocking solution was discarded, and the plates were washed with PBST buffer (PBS containing 0.1% tween-20, pH 7.4) for 3 times. […] After incubation was over, the plates were washed with PBST for 3 times. […] After washing the plate with PBST for 6 times, 50 μl/well TMB chromogenic substrate (KPL, 52-00-03) was added and incubated at room temperature for 10-15 min, and 50 μl/well 1 M H₂SO₄ was added to stop the reaction. The absorption value was read by using a NOVOStar microplate reader at 450 nm.

[2] = molecular target: native TSLP (human, UniProt Q969D9 29-159); assay: cell-based or functional assay
[3] = molecular target: Fc-tagged human TSLP antigen (huTSLP-Fc) (human); assay: cell-based or functional assay

Binder | EC50 [1] [nM] | IC50 of inhibiting the proliferation of BaF3-TLSPR/IL7R cells induced by native TSLP [2] [nM] | IC50 of inhibiting TSLP-induced proliferation of BaF3 cells overexpressing TSLPR/IL7R [3] [nM]
hu119-13 (antibody, human IgG1, kappa, V domains shown, humanized, IgG1-YTE/kappa) VH: EVQLVQSGAEVKKPGSSVKVSCKASGFTFSTYNMHWVKHAPGQGLEWIGAIYPGNGETSYNQKFKDRATLTVDKSTSTAYMELSSLRSEDTAVYYCAREDDYGEGYFDVWGQGTTVTVSS VL: EIVLTQSPATLSLSPGERATLSCRASESVDNSGLSFMHWYQQKPGQAPRLLIYRASNLGSGIPARFSGSGSGTDFTLTISSLEPEDFAVYYCQQINTDPLTFGQGTKLEIKR | 0.344 |  | 
hu119-30 (antibody, human IgG1, kappa, V domains shown) VH: EAQLVQSGAEVKKPGSSVKVSCKASGFTFSTYNMHWVRQAPGQGLEWIGAIYPGNGETSYNQKFKDRATLTVDKSTRTAYMELSSLRSEDTAVYYCAREDDYGEGYFDVWGQGTTVTVSS VL: DIVLTQSPATLSLSPGERATLSCRASESVDSSGLSFMHWYQQKPGQPPRLLLYRASNLGSGIPARFSGSGSGTDFTLTISSLEPEDFAVYYCQQINTDPLTFGQGTKLEIKR |  | 1.53 | 0.43
hu119-18 (antibody, human IgG1, kappa, humanized, IgG1-YTE/kappa) heavy: EVQLVQSGAEVKKPGSSVKVSCKASGFTFSTYNMHWVKHAPGQGLEWIGAIYPGNGETSYNQKFKDRATLTVDKSTSTAYMELSSLRSEDTAVYYCAREDDYGEGYFDVWGQGTTVTVSSASTKGPSVFPLAPSSKSTSGGTAALGCLVKDYFPEPVTVSWNSGALTSGVHTFPAVLQSSGLYSLSSVVTVPSSSLGTQTYICNVNHKPSNTKVDKKVEPKSCDKTHTCPPCPAPELLGGPSVFLFPPKPKDTLYITREPEVTCVVVDVSHEDPEVKFNWYVDGVEVHNAKTKPREEQYNSTYRVVSVLTVLHQDWLNGKEYKCKVSNKALPAPIEKTISKAKGQPREPQVYTLPPSRDELTKNQVSLTCLVKGFYPSDIAVEWESNGQPENNYKTTPPVLDSDGSFFLYSKLTVDKSRWQQGNVFSCSVMHEALHNHYTQKSLSLSPGK light: EIVLTQSPATLSLSPGERATLSCRASESVDNSGLSFMHWYQQKPGQPPRLLLYRASNLGSGIPARFSGSGSGTDFTLTISSLEPEDFAVYYCQQINTDPLTFGQGTKLEIKRTVAAPSVFIFPPSDEQLKSGTASVVCLLNNFYPREAKVQWKVDNALQSGNSQESVTEQDSKDSTYSLSSTLTLSKADYEKHKVYACEVTHQGLSSPVTKSFNRGEC | 0.345 |  | 
hu119-03 (antibody, human IgG1, kappa, humanized, IgG1-YTE/kappa) heavy: EVQLVQSGAEVKKPGSSVKVSCKASGFTFSTYNMHWVKHAPGQGLEWIGAIYPGNGETSYNQKFKDRATLTVDKSTSTAYMELSSLRSEDTAVYYCAREDDYGEGYFDVWGQGTTVTVSSASTKGPSVFPLAPSSKSTSGGTAALGCLVKDYFPEPVTVSWNSGALTSGVHTFPAVLQSSGLYSLSSVVTVPSSSLGTQTYICNVNHKPSNTKVDKKVEPKSCDKTHTCPPCPAPELLGGPSVFLFPPKPKDTLYITREPEVTCVVVDVSHEDPEVKFNWYVDGVEVHNAKTKPREEQYNSTYRVVSVLTVLHQDWLNGKEYKCKVSNKALPAPIEKTISKAKGQPREPQVYTLPPSRDELTKNQVSLTCLVKGFYPSDIAVEWESNGQPENNYKTTPPVLDSDGSFFLYSKLTVDKSRWQQGNVFSCSVMHEALHNHYTQKSLSLSPGK light: DIVMTQSPDSLAVSLGERATINCRASESVDNSGLSFMHWYQQKPGQPPKLLIYRASNLGSGVPDRFSGSGSGTDFTLTISSLQAEDVAVYYCQQINTDPLTFGQGTKLEIKRTVAAPSVFIFPPSDEQLKSGTASVVCLLNNFYPREAKVQWKVDNALQSGNSQESVTEQDSKDSTYSLSSTLTLSKADYEKHKVYACEVTHQGLSSPVTKSFNRGEC | 0.159 |  | 
hu119-07 (antibody, human IgG1, kappa, humanized, IgG1-YTE/kappa) heavy: EVQLVQSGAEVKKPGSSVKVSCKASGFTFSTYNMHWVKHAPGQGLEWIGAIYPGNGETSYNQKFKDRATLTVDKSTSTAYMELSSLRSEDTAVYYCAREDDYGEGYFDVWGQGTTVTVSSASTKGPSVFPLAPSSKSTSGGTAALGCLVKDYFPEPVTVSWNSGALTSGVHTFPAVLQSSGLYSLSSVVTVPSSSLGTQTYICNVNHKPSNTKVDKKVEPKSCDKTHTCPPCPAPELLGGPSVFLFPPKPKDTLYITREPEVTCVVVDVSHEDPEVKFNWYVDGVEVHNAKTKPREEQYNSTYRVVSVLTVLHQDWLNGKEYKCKVSNKALPAPIEKTISKAKGQPREPQVYTLPPSRDELTKNQVSLTCLVKGFYPSDIAVEWESNGQPENNYKTTPPVLDSDGSFFLYSKLTVDKSRWQQGNVFSCSVMHEALHNHYTQKSLSLSPGK light: DIVLTQSPDSLAVSLGERATINCRASESVDNSGLSFMHWYQQKPGQPPKLLIYRASNLGSGVPDRFSGSGSGTDFTLTISSLQAEDVAVYYCQQINTDPLTFGQGTKLEIKRTVAAPSVFIFPPSDEQLKSGTASVVCLLNNFYPREAKVQWKVDNALQSGNSQESVTEQDSKDSTYSLSSTLTLSKADYEKHKVYACEVTHQGLSSPVTKSFNRGEC | 0.213 |  | 
hu119-11 (antibody, human IgG1, kappa, V domains shown, humanized, IgG1-YTE/kappa) VH: EVQLVQSGAEVKKPGSSVKVSCKASGFTFSTYNMHWVKHAPGQGLEWIGAIYPGNGETSYNQKFKDRATLTVDKSTSTAYMELSSLRSEDTAVYYCAREDDYGEGYFDVWGQGTTVTVSS VL: DIVMTQSPDSLAVSLGERATINCRASESVDNSGLSFMHWYQQKPGQPPKLLLYRASNLGSGIPDRFSGSGSGTDFTLTISSLQAEDVAVYYCQQINTDPLTFGQGTKLEIKR | 0.174 |  | 
hu3-13 (antibody, human IgG1, kappa, V domains shown) VH: EVQLVQSGAEVKKPGASVKVSCKASGYTFTDDYMNWVRQAPGQRLEWMGIISPYNGGTSYNQKFKGRVTLTVDKSASTAYMELSSLRSEDTAVYYCAREDYDYDGYAMDYWGQGTTVTVSS VL: EIVLTQSPATLSLSPGERATLSCRASSSVSYMHWYQQKPGQAPRPWIYATSNLASGVPARFSGSGSGTSYTLTISRLEPEDFAVYYCQQSDSGREFGGGTKVEIKR |  | 0.289 | 0.444
AMG157 (antibody, human IgG2, lambda, V domains shown) VH: QMQLVESGGGVVQPGRSLRLSCAASGFTFRTYGMHWVRQAPGKGLEWVAVIWYDGSNKHYADSVKGRFTITRDNSKNTLNLQMNSLRAEDTAVYYCARAPQWELVHEAFDIWGQGTMVTVSS VL: SYVLTQPPSVSVAPGQTARITCGGNNLGSKSVHWYQQKPGQAPVLVVYDDSDRPSWIPERFSGSNSGNTATLTISRGEAGDEADYYCQVWDSSSDHVVFGGGTKLTVLG |  |  | 0.573
hu199-36 (antibody, human IgG1, kappa, V domains shown) VH: EVQLVQSGAEVKKPGASVKVSCKASGYTFTTYWMHWVKQAPGQGLEWMGMIDPSDSETTLIQKFKDKVTLTVDKSTSTAYMELSSLRSEDTAVYYCARTLDGYYDYWGQGTTVTVSS VL: DIQMTQSPSSLSASVGDRVTITCRASENIYSYLAWYQQKPGKSPQLLVYFAKTLAEGVPSRFSGSVSGTQFTLTISSLQPEDFATYYCQHHYGTPWTFGGGTKVEIKR |  |  | 0.476
hu179-08 (antibody, human IgG1, kappa, humanized, IgG1-YTE/kappa) heavy: EVQLVQSGAEVKKPGSSVKVSCKASGYTFSNYLIEWVRQAPGQGLEWIGVIDPGNGDTNYNENFKGRATLTADKSTSTAYIELSSLRSEDTAVYYCAREDNTGTAFDYWGQGTTVTVSSASTKGPSVFPLAPSSKSTSGGTAALGCLVKDYFPEPVTVSWNSGALTSGVHTFPAVLQSSGLYSLSSVVTVPSSSLGTQTYICNVNHKPSNTKVDKKVEPKSCDKTHTCPPCPAPELLGGPSVFLFPPKPKDTLYITREPEVTCVVVDVSHEDPEVKFNWYVDGVEVHNAKTKPREEQYNSTYRVVSVLTVLHQDWLNGKEYKCKVSNKALPAPIEKTISKAKGQPREPQVYTLPPSRDELTKNQVSLTCLVKGFYPSDIAVEWESNGQPENNYKTTPPVLDSDGSFFLYSKLTVDKSRWQQGNVFSCSVMHEALHNHYTQKSLSLSPGK light: DIVMTQTPLSLSVTPGQPASISCKASQSVSSDVTWYLQKPGQSPQLLIYYVSNHYTGVPDRFSGSGSGTDFTLKISRVEAEDVGVYYCQQHHRFPLTFGQGTKLEIKRTVAAPSVFIFPPSDEQLKSGTASVVCLLNNFYPREAKVQWKVDNALQSGNSQESVTEQDSKDSTYSLSSTLTLSKADYEKHKVYACEVTHQGLSSPVTKSFNRGEC | 1.02 |  | 
hu179-33 (antibody, human IgG1, kappa, V domains shown) VH: EVQLVQSGAEVKKPGSSVKVSCKASGYTFSNYLIEWVRQAPGQGLEWIGVIDPGVGDTNYNENFKGRATLTADKSTSTAYIELSSLRSEDTAVYYCAREDNTGTAFDYWGQGTTVTVSS VL: SIVMTQTPLSLSVTPGQPASISCKASQSVSSDVTWYLQKPGQSPQLLIYYVSEHYTGVPDRFSGSGYGTDFTLKISRVEAEDVGVYYCQQHHRFPLTFGQGTKLEIKR |  | 0.0228 | 0.409
